Results published in publication PMC10104018.

What was measured:
[1] = biological target: T1, RGG-GFP-RGG (His), purified (UniProt D0PV95 1-168); experiment: confocal fluorescence co-localization to condensates
T1 chain: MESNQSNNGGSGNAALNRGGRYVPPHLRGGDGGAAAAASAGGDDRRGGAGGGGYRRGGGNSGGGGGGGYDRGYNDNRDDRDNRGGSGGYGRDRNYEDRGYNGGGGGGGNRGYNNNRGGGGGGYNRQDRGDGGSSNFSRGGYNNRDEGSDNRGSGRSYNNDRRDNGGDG

[2] = biological target: T2, RGG-GFP-RGG, TXTL-expressed (UniProt D0PV95 1-168); experiment: as above
T2 chain: T1 chain

UUUUUUUUUUUUUUU (ssRNA) [Cy5-U15]: binds [1]; binds [2].
